According to patent publication US20200325237A1:

Key:
[1] = biological target: hTfR (human transferrin receptor, source and construct not stated) (human) (UniProt P02786); assay: ELISA; ratio of the Kd on HFE-captured hTfR to the Kd on directly coated hTfR
[2] = biological target: hTfR (human transferrin receptor, source and construct not stated) (human) (UniProt P02786); assay: ELISA, biotinylated antibody on hTfR captured by plate-coated HFE (HFE+TfR); fit: specific binding with Hill slope
[3] = biological target: hTfR (human transferrin receptor, source and construct not stated) (human) (UniProt P02786); assay: ELISA, biotinylated antibody on hTfR captured by plate-coated human holo-transferrin (Tf+TfR); fit: specific binding with Hill slope
[4] = biological target: hTfR (human transferrin receptor, source and construct not stated) (human) (UniProt P02786); assay: ELISA; ratio of the Kd on transferrin-captured hTfR to the Kd on directly coated hTfR
[5] = biological target: TfR2 (transferrin receptor 2) (UniProt Q9UP52); assay: A450 plate assay on TfR2 (method not described in the text)
Sequence of TfR2 (transferrin receptor 2) (Q9UP52 105-801 limits assumed): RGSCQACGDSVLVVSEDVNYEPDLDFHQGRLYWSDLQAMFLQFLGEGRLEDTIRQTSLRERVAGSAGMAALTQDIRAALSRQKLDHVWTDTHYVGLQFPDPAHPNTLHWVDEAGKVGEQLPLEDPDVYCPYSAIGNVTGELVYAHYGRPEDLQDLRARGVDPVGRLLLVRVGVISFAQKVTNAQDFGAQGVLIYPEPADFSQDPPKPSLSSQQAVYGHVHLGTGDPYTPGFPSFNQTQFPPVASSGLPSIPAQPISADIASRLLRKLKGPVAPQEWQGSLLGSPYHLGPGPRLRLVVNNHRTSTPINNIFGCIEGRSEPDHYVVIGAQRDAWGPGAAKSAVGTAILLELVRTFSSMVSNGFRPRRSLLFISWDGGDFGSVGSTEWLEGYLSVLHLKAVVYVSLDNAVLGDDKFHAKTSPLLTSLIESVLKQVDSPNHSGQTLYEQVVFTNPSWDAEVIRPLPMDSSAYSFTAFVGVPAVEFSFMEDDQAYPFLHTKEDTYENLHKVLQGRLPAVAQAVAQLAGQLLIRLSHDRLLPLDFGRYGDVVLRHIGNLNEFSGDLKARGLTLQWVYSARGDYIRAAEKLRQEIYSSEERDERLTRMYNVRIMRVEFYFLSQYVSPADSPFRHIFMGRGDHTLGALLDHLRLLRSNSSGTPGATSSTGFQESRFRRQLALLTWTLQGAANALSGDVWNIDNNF

Sequence of hTfR (human transferrin receptor, source and construct not stated) (human) (P02786 89-760 limits assumed): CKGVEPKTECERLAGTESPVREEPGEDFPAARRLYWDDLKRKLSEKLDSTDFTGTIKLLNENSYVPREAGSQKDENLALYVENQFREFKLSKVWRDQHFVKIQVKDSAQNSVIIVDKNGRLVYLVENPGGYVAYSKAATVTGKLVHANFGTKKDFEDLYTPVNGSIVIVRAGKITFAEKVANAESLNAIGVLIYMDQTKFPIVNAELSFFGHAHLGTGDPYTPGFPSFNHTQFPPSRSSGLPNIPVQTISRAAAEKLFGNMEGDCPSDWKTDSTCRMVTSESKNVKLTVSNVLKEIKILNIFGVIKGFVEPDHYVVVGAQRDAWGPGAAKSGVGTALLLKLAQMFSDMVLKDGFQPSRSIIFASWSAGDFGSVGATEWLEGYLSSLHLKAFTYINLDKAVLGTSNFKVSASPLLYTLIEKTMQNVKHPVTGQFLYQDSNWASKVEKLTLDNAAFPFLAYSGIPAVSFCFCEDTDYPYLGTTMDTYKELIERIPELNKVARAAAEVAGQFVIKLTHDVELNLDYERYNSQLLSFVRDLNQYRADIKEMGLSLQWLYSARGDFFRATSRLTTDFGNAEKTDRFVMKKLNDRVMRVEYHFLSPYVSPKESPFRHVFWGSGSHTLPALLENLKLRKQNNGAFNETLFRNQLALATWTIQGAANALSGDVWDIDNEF

blocking AF2474 (antibody)
Kd(HFE+TfR)/Kd(TfR) [1]: 688 | Bmax [2]: 5.7 A450 | Kd [2]: 28.9 nM | h [2]: 0.8 | Bmax [3]: 4.26 A450 | Kd [3]: 2.18 nM | h [3]: 1.12 | Kd(Tf+TfR)/Kd(TfR) [4]: 51.8

TfR2 Ab B-6 (antibody)
EC50 (read off the curve) [5]: 0.3 nM
